Laboratory results published in paper PMC3392929 (The Journal of Cell Biology, 2012).

Experiments:
[1] = target: Purified β-actin (Cytoskeleton) (UniProt P60709 1-375); assay: SPR
[2] = target: Purified β-actin (Cytoskeleton) (UniProt P60709 1-375); assay: SPR; remark: listed apart in the source

Binder	Kd [1]	Kd [2]
GST-tagged full-length Myo1c (natural protein) MALQVELIPTGEIIRVVHPHRPCKLALGSDGVRVTMESALTARDRVGVQDFVLLENFTSEAAFIENLRRRFRENLIYTYIGPVLVSVNPYRDLQIYSRQHMERYRGVSFYEVPPHLFAVADTVYRALRTERRDQAVMISGESGAGKTEATKRLLQFYAETCPAPERGGAVRDRLLQSNPVLEAFGNAKTLRNDNSSRFGKYMDVQFDFKGAPVGGHILSYLLEKSRVVHQNHGERNFHIFYQLLEGGEEETLRRLGLERNPQSYLYLVKGQCAKVSSINDKSDWKVVRKALTVIDFTEDEVEDLLSIVASVLHLGNTHFAADEESNAQVTTENQLKYLTRLLGVEGSTLREALTHRKIIAKGEELLSPLNLEQAAYARDALAKAVYSRTFTWLVAKINRSLASKDAESPSWRSTTVLGLLDIYGFEVFQHNSFEQFCINYCNEKLQQLFIELTLKSEQEEYEAEGIAWEPVQYFNNKIICDLVEEKFKGIISILDEECLRPGEATDLTFLEKLEDTIKQHPHFLTHKLADQRTRKSLDRGEFRLLHYAGEVTYNVTGFLDKNNDLLFRNLKETMCSSENPILGQCFDRSELSDKKRPETVATQFKMSLLELVEILKSKEPAYVRCIKPNDSKQPGRFDEVLIRHQVKYLGLMENLRVRRAGFAYRRKYEAFLQRYKSLCPETWPTWTGRPQDGVTVLVRHLGYKPEEYKMGRTKIFIRFPKTLFATEDALEIRRQSLATKIQATWRGFHCRQKFLRVKRSAICIQSWWRGTLGRRKAAKRKWAAQTIRRLIQGFILRHAPRCPENAFFVDHVRTSFLLNLRRQLPRNILDTSWPTPPPALREASELLRELCRKNMVWKYCRSISPEWKQQLQQKAVASEIFKGKKDNYPQSVPRLFISTRLGADEINPRVLQALGSEPIQYAVPVVKYDRKGYKPRSRQLLLTPNAVVIVEDAKVKQRIEYTNLTGISVSSLSDSLFVLHVQREDNKQKGDVVLQSDHVIETLTKTALSADRVNNININQGSITFAGGPGRDGIIDFTPGSELLITKAKNGHLAVVAPRLNSR	≤ 2000 nM	
GST-tagged Myo1c tail domain (domain or fragment) KDNYPQSVPRLFISTRLGADEINPRVLQALGSEPIQYAVPVVKYDRKGYKPRSRQLLLTPNAVVIVEDAKVKQRIEYTNLTGISVSSLSDSLFVLHVQREDNKQKGDVVLQSDHVIETLTKTALSADRVNNININQGSITFAGGPGRDGIIDFTPGSELLITKAKNGHLAVVAPRLNSR		≤ 2000 nM
